Reference: patent US5770691A, “Discriminatory substrates for MMP hydrolysis” (Regents of the University of Minnesota, priority 1995, dated 1998)

B1: MMP-1 (Homo sapiens) (protein)
chain: FVLTEGNPRWEQTHLTYRIENYTPDLPRADVDHAIEKAFQLWSNVTPLTFTKVSEGQADIMISFVRGDHRDNSPFDGPGGNLAHAFQPGPGIGGDAHFDEDERWTNNFREYNLHRVAAHELGHSLGLSHSTDIGALMYPSYTFSGDVQLAQDDIDGIQAIYGRSQNPVQPIGPQTPKACDSKLTFDAITTIRGEVMFFKDRFYMRTNPFYPEVELNFISVFWPQLPNGLEAAYEFADRDEVRFFKGNKYWAVQGQNVLHGYPKDIYSSFGFPRTVKHIDAALSEENTGKTYFFVANKYWRYDEYKRSMDPGYPKMIAHDFPGIGHKVDAVFMKDGFFYFFHGTRQYKFDPKTKRILTLQKANSWFNCRKN
notes: made in house; host or cells: native secreted protein purified from culture medium of human rheumatoid synovial cells
B2: MMP-2 (Homo sapiens) (protein)
chain: YNFFPRKPKWDKNQITYRIIGYTPDLDPETVDDAFARAFQVWSDVTPLRFSRIHDGEADIMINFGRWEHGDGYPFDGKDGLLAHAFAPGTGVGGDSHFDDDELWTLGEGQVVRVKYGNADGEYCKFPFLFNGKEYNSCTDTGRSDGFLWCSTTYNFEKDGKYGFCPHEALFTMGGNAEGQPCKFPFRFQGTSYDSCTTEGRTDGYRWCGTTEDYDRDKKYGFCPETAMSTVGGNSEGAPCVFPFTFLGNKYESCTSAGRSDGKMWCATTANYDDDRKWGFCPDQGYSLFLVAAHEFGHAMGLEHSQDPGALMAPIYTYTKNFRLSQDDIKGIQELYGASPDIDLGTGPTPTLGPVTPEICKQDIVFDGIAQIRGEIFFFKDRFIWRTVTPRDKPMGPLLVATFWPELPEKIDAVYEAPQEEKAVFFAGNEYWIYSASTLERGYPKPLTSLGLPPDVQRVDAAFNWSKNKKTYIFAGDKFWRYNEVKKKMDPGFPKLIADAWNAIPDNLDAVVDLQGGGHSYFFKGAYYLKLENQSLKSVKFGSIKSDWLGC
notes: as for B1

What was measured:
Format in all cases: biochemical, human
[1] = substrate: CCC[C@H](NC(=O)[C@H](C)NC(=O)[C@H](Cc1ccc(O)cc1)NC(=O)[C@@H]1CCCN1C(=O)[C@H](CCCCN)NC(=O)[C@@H]1CCCN1C(=O)[C@H](CCCNC(=N)N)NC(=O)Cc1cc(=O)oc2cc(OC)ccc12)C(=O)N[C@@H](Cc1c[nH]c2ccccc12)C(=O)N[C@@H](CCSC)C(=O)N[C@@H](CCCCNc1ccc([N+](=O)[O-])cc1[N+](=O)[O-])C(N)=O; test: Fluorometric hydrolysis of synthetic Mca/Lys(Dnp) substrates by MMP-1; conditions: other: MMP-1, 37° C., pH 7.5
Excerpt: (§1) All MMPs were purified in zymogen form. ProMMP-1 (Suzuki et al., Biochem., 29, 10261 (1990)), proMMP-2 (Okada et al., Eur. J. Biochem., 194, 721 (1990)), and proMMP-3 (Ito et al., Arch. Biochem. Biophys., 267, 211 (1988)) were purified from the culture medium of human rheumatoid synovial cells stimulated with rabbit macrophage-conditioned medium. ProMMP-9 was purified from the culture medium of HT-1080 cells as described in Morodomi et al., Biochem. J., 285, 603 (1992). ProMMP-2 and proMMP-9 were activated by reacting with 1 mM 4-aminophenylmercuric acetate at 37° C. for 45 minutes and 32 hours, respectively. ProMMP-1 was activated by reacting with 1 mM 4-aminophenylmercuric acetate and an equimolar amount of MMP-3 at 37° C. for 6 hours. After activation, MMP-3 was completely removed from MMP-1 by affinity chromatography using an anti-MMP-3 IgG Affi-Gel 10 column. The resin, Affi-Gel 10 (Biorad, Emoryville, Calif.), was coupled to anti-MMP-3 IgG (Okada et al., Annals of Rheumat. Dis., 48, 645 (1989)) per the manufacturer's protocol. Pro-MMP-3 was activated by reacting with 5 μg/mL chymotrypsin at 37° C. for 2 hours. Chymotrypsin was inactivated with 2 mM diisopropylfluorophosphate. The amounts of active MMP-1, MMP-2, and MMP-3 were determined by titration with tissue inhibitor of metalloproteinase-1(TIMP1) over a concentration range of 0.1-3 μg/mL, while the amount of active MMP-9 was determined by titration with TIMP-2 (0.1-3 μg/mL). TIMP-1 was isolated from the medium of HT-1080 cells as described in Morodomi et al., Biochem J., 285, 603 (1992).
(§2) Substrates were prepared as 10 mM stock solutions in dimethylsulfoxide (DMSO). Fluorescent assays were performed at λex =325 nm and λem =393 nm, which should encounter no interference from Trp residues, using a Hitachi fluorescence spectrophotometer F-3010. Initial total hydrolysis assays were run at a substrate concentration of […] to avoid filtering effects. The change in fluorescence at this concentration was 110 based on total hydrolysis of 1 μM substrate. A typical assay was carried out by incubating 100 μL of various concentrations of a substrate with 10 μL of an enzyme solution (2-20 nM) in 50 mM Tris-HCl, pH 7.5, 0.15M NaCl, 10 mM CaCl2, 0.05% Brij 35, 0.02% NaN3. The reaction was stopped by addition of 900 μl of 3% (v/v) glacial acetic acid. MMP-3 activity at pH 6.0 was measured in 50 mM sodium acetate buffer, pH 6.0, instead of Tris-HCl buffer. The amount of substrate hydrolysis was calculated based on the fluorescence values of the Mca-Arg-Pro-Lys-Pro-Gln standard solution after substraction of the reaction blank value (stopping solution added before the enzyme). Individual kinetic parameters (kcat and KM) were determined over a substrate concentration range of 2.5-75 μM and calculated by double reciprocal plots.

[2] = substrate: COc1ccc2c(CC(=O)N3CCC[C@H]3C(=O)N[C@@H](CCCCN)C(=O)N3CCC[C@H]3C(=O)N[C@@H](CCC(N)=O)C(=O)N[C@@H](CCC(N)=O)C(=O)N[C@@H](Cc3ccccc3)C(=O)N[C@@H](Cc3ccccc3)C(=O)NCC(=O)N[C@@H](CC(C)C)C(=O)N[C@@H](CCCCNc3ccc([N+](=O)[O-])cc3[N+](=O)[O-])C(=O)NCC(=O)O)cc(=O)oc2c1; test: as above; conditions: other: MMP-1, 37° C., pH 7.5
Excerpt: as §1, §2

[3] = substrate: CCC[C@H](NC(=O)[C@H](C)NC(=O)[C@H](Cc1ccc(O)cc1)NC(=O)[C@@H]1CCCN1C(=O)[C@H](CCCCN)NC(=O)[C@@H]1CCCN1C(=O)[C@H](CCCNC(=N)N)NC(=O)Cc1cc(=O)oc2cc(OC)ccc12)C(=O)N[C@@H](Cc1c[nH]c2ccccc12)C(=O)N[C@@H](CCSC)C(=O)N[C@@H](CCCCNc1ccc([N+](=O)[O-])cc1[N+](=O)[O-])C(N)=O; test: Fluorometric hydrolysis of synthetic Mca/Lys(Dnp) substrates by MMP-2; conditions: other: MMP-2, 37° C., pH 7.5
Excerpt: as §1, §2

[4] = substrate: COc1ccc2c(CC(=O)N3CCC[C@H]3C(=O)N[C@@H](CCCCN)C(=O)N3CCC[C@H]3C(=O)N[C@@H](CCC(N)=O)C(=O)N[C@@H](CCC(N)=O)C(=O)N[C@@H](Cc3ccccc3)C(=O)N[C@@H](Cc3ccccc3)C(=O)NCC(=O)N[C@@H](CC(C)C)C(=O)N[C@@H](CCCCNc3ccc([N+](=O)[O-])cc3[N+](=O)[O-])C(=O)NCC(=O)O)cc(=O)oc2c1; test: as above; conditions: other: MMP-2, 37° C., pH 7.5
Excerpt: as §1, §2

| Protein | Km [1] | kcat [1] | kcat/Km [1] | Km [2] | kcat [2] | kcat/Km [2] | Km [3] | kcat [3] | kcat/Km [3] | Km [4] | kcat [4] | kcat/Km [4] |
| --- | --- | --- | --- | --- | --- | --- | --- | --- | --- | --- | --- | --- |
| B1 | 142 µM | 0.15 S^-1 | 1,060 S^-1 M^-1 | 16.6 µM | 0.04 S^-1 | 2,510 S^-1 M^-1 |  |  |  |  |  |  |
| B2 |  |  |  |  |  |  | 50 µM | 2.70 S^-1 | 54,000 S^-1 M^-1 | 100 µM | 1.07 S^-1 | 10,800 S^-1 M^-1 |
